Measurements published in the nanobody polyreactivity screen of Harvey et al. (2022).

Test: yeast display, Sf9 membrane polyspecificity reagent, FACS + sequencing; frameworks hold sequencing errors
In short: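 Synthetic nanobody libraries on Saccharomyces cerevisiae BJ5465 were galactose-induced for 36–48 hours, stained 1 hour at 4 °C with 10% biotinylated, detergent-solubilized Sf9 membrane reagent and enriched on streptavidin microbeads. FACS then separated cells into low and high (top ~1%) gates by anti-HA (expression) and streptavidin (reagent binding) fluorescence. Genes were colony-PCR amplified, MiSeq 2 × 250 sequenced and CDR-length filtered. A clone's polyreactivity label is that of its gate of origin.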

| Sequence | polyreactivity (PSR sort gate) |
| --- | --- |
| QVQLVESGGGLVQAGGSLRLSCAASGGTFARNAMGWYRQAPGKERELVAAIRGGVSTNYADSVKGRFTISRDNAKNTVYLQMNSLKPEDTAVYYCNASPPTLEGYWGQGTQVTVSS | low polyreactivity |
| QVQLVESGGGIVPAGGSLRLSCAASGLIFKTYTMGWSRQAPGKEREFVAAITTSGGSTYYADSVKGRFTISRDNAKNTVYLQMNSLKPEDTAVYSCGAVWWKSFQGSSYRMNYWGQGTQVTVSS | high polyreactivity |
| QVQLQESGGGLEQAGGSLRPSCAASGSISDGVPMGWYRQAPGEERELVATTVLGATTNYADSVKGRFTISRGNAKNTVYLQMNSLKPEETAVYYCAAPLRYDKGFSYWGQGTQVTVSS | low polyreactivity |
| QVQLVESGGGLVQAGGSLRLRCAASGSTFVRYAMGWYREAAGKEMELVAAISSRGGSTYYADSVKGRFTISRDNAKNTVYLQMNSLKPEDTAVYYCNAAAFINFMLYDYWGQGTQVTVSS | high polyreactivity |
| QVQIVESGGGLVQAGGSLRLSCAASGSILIPYAMGWYRQAPGKERELVAAISRTTRTYYADSVKGRFTISRDNAKNTVYLQMNCLKPEDTAVYYCAADRVYPYFRYGFWGQGTKVTVSS | high polyreactivity |
| QVQLVESGGGLVQAGGSLRLSCAASGFTFTYYAMGWSRQAPGKERELVATISSGGSTYYADSVKGRFTISRDNAKYTVYLQMISLKPEDTAVYYCAVTTYSGLYGFDYWGQGTQVTVSS | low polyreactivity |
| QVQLVESGGGLVQAGGSLRLSCAASGFTLISYDMGWYRPSPGKERELVAGISSGDSTDYADSVKGRFTISRDNAKNTVYLQMNSLKPEDTAVYYCAATWYGYYSRYDFYYWGQGTQVTVSS | low polyreactivity |
| QVQLVESGGGLVQAGGSLRLSCAASGNTFWGNAMGWYRQAPGKERELVATISASSGSTYYADSVKGRFTISRDNAKNTVYLQMNSLKPEDTAVYYCAKTALRYLKHGRTKGDYWGQGTQVTVSS | low polyreactivity |
| QVQLVDSGGGLVQAGGTHRLSCAASGFTFRRNAMGWYRQAPGKERELVAAITYNGGTSYYADSVKGRFSISRDNAKNTVYLQMNSLKPEETAVYYCAAVDSYSPYVSHDNWGQGTKVTVSS | low polyreactivity |
| QVQLVESGGGLVQAGGSLRLSCAASGRIFYRNAMGWYRQAPVKERELVASITWRGGRTYYADSVKGRFTISRDNAKNTVYLQMNSLKQEDTAVYYCNAAPRTYNAWDFDYWGQGTQVTVSS | high polyreactivity |
| QVQLVESGGGLVQAGGSLRLSCAATGRTFSSYAMGWYRQAPGKEREFLARISSSRGRTSYADSVKGRFTISRDNAKNTVYVQMNSLKPEDTAVYYCAARPPYRVGIVPLGRREYYWGRGTQVTVSS | high polyreactivity |
| QVQLVESGGGLVQAGGSLSLSCAASGSTFNHYAMGWYSPAPGKERELVAAISSRGGSTHYADSVKGRFTISRDNAKNTVYLQMNSLKPEDTAVYDCARDTDPQSSRSSDYDYWGQGTQVTVSS | low polyreactivity |
| QVQLVESGGGLVQAGGSLRLTCAASGSTFGSYAMGRYRQAPGKERELVAVAISWSGGNTYYADSVKGRFTNSRDNAKNTFYLQMNSLKPEDTAVYYFAAYGTTGVYRGPGYDYWGQGTQVTVSS | low polyreactivity |
| QDQLVESWGALVQAGGRLRLICAASGTIFSRNTMRSYRQAPGKDRELVAGISSSGSRTYYADSVKGRFTISRDNAKNTVYLQMNSLKPEDNAVYYCAAEHQRSRGRRYYIGYDYWGQGTQVTVSS | low polyreactivity |
| QFQLVESGGGLVQAGGSLRLSCAASGFIFYRNAMGGYRQAPGKERELVAGITSGGRPYYADSVKGRFTISRDNAKNTVYLQMNCLKPEDTGVYYCAARRSRPTYYSTGVNYWGQGTQVTVSS | high polyreactivity |
| QVLLVESGGGIVQAGGSLRLSCSASGIIFPCYAMGWYRQAPGKERELLAAISSSGSSTYYADSVMGRFTITRDNAKNTVYLQMNSLKPEDTAVYYCAAVRYGMRRMDYWGQGTQVTVSS | high polyreactivity |

| Sequence | polyreactivity (PSR sort gate) |
| --- | --- |
| QVQLVESGGGLVQAGGSLRLSCAASGFTLTRKAMGWYRQAPGKERELVAAISRSGGSTYYADSVKGRFTISRDNAKNTVYLQMNSLKPEDTAVYYCNAGYGYGYPKYDYWGQGTQVTVSS | high polyreactivity |
| QVQLVESGGGLVHAGGSLRLSCAASGRTFGTYAKGWYRQAPGKERELVAAISSRGGSTYYADSVKGRFTISRDNAKNTVYLQMNSLKPEDTAVYYCAQRVKDGSGYWGQGTQVTVSS | high polyreactivity |
| HVPLVESGGGLVQAGGSLRLSCAASGSIFVWYVMGWYRQAPGKEWELVAAITWSAARTYYADSVKGRFTISRDNAKITVYLQMNSLKPEDTAVYYGAADPVSYQPSSRIFDYWGQATQVTVSS | low polyreactivity |
| QVQRVESGGGLVQAGRSLRLSCAATGITFWVYAMGWYRQAPGKERELVAAISRRGGSTSYADSVKGRFTISRDNAKNTVYLQMNSLKPEDTAVYYCAATTYTHPYGYWGQGTQVTVSS | high polyreactivity |
| QVQLVESGGGLVQAGGSLRLSCAASGSIFTHYAMGWYRQAPGTERELVAGITSSGGSTYADSVKGRFTISRDNAKNTVYLQMNSLKPEDTAVYYCAAEQLRSRLIEYDYWRQGTQVTVSS | low polyreactivity |
| QVQLVESGGGLVQAGGSLRLSCAASGSIFKGYAMGWYRQAPGKERELVAAITYSGGSTYYADSVKGRFTISRDNAKNTVYLQMNSLKPEDTAVYYCAADSEQDNLRYYRWVWYYYWGQGTQVTVSS | low polyreactivity |
| QVQLEESGGGLVQAGGSLRLSFAASGRIFRYYAMGWYRHAPGKERELVPRMSWSGGSTHYADSVKGRFTISRDNAKNTVYLQMNSLTPEDTAVYYCAADGNGYPYRAGRTYDYWGQGTQVTVSS | low polyreactivity |
| QVQLVESGGGLVQAGGSLRLSCAASGSIFYIYALGWYRQAPGKERELVAAISRSGGRTYYADSVKGRFTISRDNAKNTVYLQMNSLKPEDTGVYYCAARRYTAYDYWGQGTQVTVSS | high polyreactivity |
| QVQLVESGGGFVQAGGSLRLSCAASGSTFSPNGMGWYRPAPGKERELVAAISSSTGSTNYADSVKGRFTISRDNAKNTVYLQMNSLKPEDTAVYYCAVDPYVHWTTKLYDYWGQGSQVTVSS | low polyreactivity |
| QVQLVESGGGLVQAGGSLRLSCAASGFIFWEYAMGWYRQAPGKERELVAAISTSGGSTYYADSVKGRFTISRDNAKNTVYLQMISLKPEDTAVYYCAVDGWDDTYFRQDMDYWGQGTQVTVSS | low polyreactivity |
| QVQIVDSGVGLVQAGGSLRLSCAASGSIFKYNAKGWYREAPGKVRELVAAIRWSGVGTRYADSVKGRFTISRVNAKNTVYLQMNSLKPEDTAVYSCAARYGRHRVSCYATWRYGYWGQGTQVTVSS | low polyreactivity |
| QVQLVESGGGLVQAGGSLRLSCAASGSIFRKNVMGWSRPAPGKERELVAAITASGGRTYYADSVKGRFTISRDNAKNTVYLQMNSLKPEDTAVYYCAARRYYPYISSGPYYYWGQGTQVTVSS | high polyreactivity |
| QVQLVESGGGLVQAGGILRLSCAASGIIFYYYAMGWYRQAPGKEMELVAGIRARGGITYYADSVKGRFTISRDNAKNTVYLLMNSLKPVDTAVYYCAKSTRPVSGVPDGPLYEYWGQGTQVTVSS | low polyreactivity |
| QVQLVESGGGLVQAGGSLRLSCAASGFTFYKNAMGWYRQAPGKERELVASISSGGSTKYADSVKGRFTISRDNAKNTVYLQMNSLKPEDTAVYYCAADSGRNRMYYWGQGTQVTVSS | high polyreactivity |
| QVQLVESGGGLVQAGGSLRLSCAASGSIFGYNTMGRYRQAPGKERELVAAISYRGGSTYADSVKGRFTISRDNAKNTVYLQMNSLKPEDTAVYYCAKRSIVGYRYSGYDYWGQGTQVTVSS | high polyreactivity |
